The text below walks through data of patent US20120321636A1 (UCB, published 2012).

The labels stand for the following.
B1: BMP-6 (ligand, UniProt P22004 382-513, looked up)
chain: QQSRNRSTQSQDVARVSSASDYNSSELKTACRKHELYVSFQDLGWQDWIIAPKGYAANYCDGECSFPLNAHMNATNHAIVQTLVHLMNPEYVPKPCCAPTKLNAISVLYFDDNSNVILKKYRNMVVRACGCH
notes: also called bone morphogenic protein 6

The target in experiment [1] is B1. As to the kind of experiment: ELISA-based competition: receptor-Fc against coated sclerostin for BMP-6 (11 nM).
Experiment [2] addresses B1. As to the kind of experiment: ELISA-based competition: 10-fold molar excess of receptor-Fc against coated sclerostin for BMP-6.
In experiment [3] the target is T1, sclerostin (Homo sapiens (Human), UniProt Q9BQB4 24-213).
T1 construct: also called SOST; Beer
T1 sequence: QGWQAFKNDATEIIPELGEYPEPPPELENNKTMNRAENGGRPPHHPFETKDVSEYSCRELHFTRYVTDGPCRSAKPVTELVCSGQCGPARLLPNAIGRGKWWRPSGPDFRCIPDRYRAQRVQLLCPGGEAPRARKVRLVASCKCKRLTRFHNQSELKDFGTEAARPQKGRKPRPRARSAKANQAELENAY
As to the kind of experiment: ELISA, BMP-6 on a sclerostin-coated surface (300 ng/well). The protocol:
(§1) A 10-fold molar excess of the BMP receptor was sufficient to reduce binding of sclerostin to BMP-6 by approximately 50%. This competition was also observed with a BMP receptor II-FC fusion protein (IC₅₀=36 nM) and DAN (IC₅₀=43 nM).

Experiment [4] has as its target B1. As to the kind of experiment: ELISA-based competition: receptor-Fc against coated sclerostin for BMP-6. As to the method: as §1
The target in experiment [5] is B1. As to the kind of experiment: ELISA-based competition: DAN against coated sclerostin for BMP-6.

As for BMP receptor IA (FC fusion construct), the half-inhibitory concentration (IC50) in experiment [1] was 114 nM. The same molecule came in with a percent reduction of sclerostin binding to BMP-6 at 10-fold molar excess in experiment [2] of 50%.
In turn, B1 registered a dissociation constant Kd in experiment [3] of 3.4 nM.

B2: BMP receptor II-FC fusion protein (Fc fusion, not shown: a dimerising Fc or GST; small tags and cut ends)
chain: SQNQERLCAFKDPYQQDLGIGESRISHENGTILCSKGSTCYGLWEKSKGDINLVKQGCWSHIGDPQECHYEECVVTTTPPSIQNGTYRFCCCSTDLCNVNFTENFPPPDTTPLSPPHSFNRDET
notes: also called BMPR-II
B2 gave an IC50 in experiment [4] of 36 nM.

B3: DAN (ligand)
chain: AAPPPINKLALFPDKSAWCEAKNITQIVGHSGCEAKSIQNRACLGQCFSYSVPNTFPQSTESLVHCDSCMPAQSMWEIVTLECPGHEEVPRVDKLVEKILHCSCQACGKEPSHEGLSVYVQGEDGPGSQPGTHPHPHPHPHPGGQTPEPEDPPGAPHTEEEGAED
Consider B3, for which the IC50 in experiment [5] turned out to be 43 nM.
